Earlier results as cited in article PMC10866363.

Target: Trigger factor (Escherichia coli) (UniProt P0A850)

Trigger factor, sequence (P0A850 whole entry): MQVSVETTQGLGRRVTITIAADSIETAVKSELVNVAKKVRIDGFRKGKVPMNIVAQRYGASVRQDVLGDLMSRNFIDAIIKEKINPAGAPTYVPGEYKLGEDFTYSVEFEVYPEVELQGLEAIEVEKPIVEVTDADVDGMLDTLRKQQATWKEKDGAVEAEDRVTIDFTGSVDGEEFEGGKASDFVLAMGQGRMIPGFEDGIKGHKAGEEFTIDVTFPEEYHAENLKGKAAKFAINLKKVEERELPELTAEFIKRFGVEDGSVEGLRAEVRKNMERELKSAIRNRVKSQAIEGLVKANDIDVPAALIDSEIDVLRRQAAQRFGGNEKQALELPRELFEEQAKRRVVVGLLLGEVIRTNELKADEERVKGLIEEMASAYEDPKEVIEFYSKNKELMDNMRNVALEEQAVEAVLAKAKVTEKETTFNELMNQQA

Trigger factor (from UniProt P0A850)
Kd: 2000 nM
